Data on two molecules can be found in US20230383007A1 (BIOSION, published 2023).

Test [1] concerns the target T1, cynomolgus TROP2-his protein (cynomolgus, UniProt P09758 27-272 (human entry), limits assumed).
T1 construct: also called Cyno TROP2-his; Cynomolgus monkey TROP2-his protein
T1 chain: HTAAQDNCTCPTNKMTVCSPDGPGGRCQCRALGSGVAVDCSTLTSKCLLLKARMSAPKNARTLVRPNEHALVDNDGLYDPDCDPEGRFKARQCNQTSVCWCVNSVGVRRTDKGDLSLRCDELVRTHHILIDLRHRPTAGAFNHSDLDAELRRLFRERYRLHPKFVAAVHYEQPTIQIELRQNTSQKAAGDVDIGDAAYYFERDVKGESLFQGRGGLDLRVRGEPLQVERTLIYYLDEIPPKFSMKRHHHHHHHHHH
Nature of the test: indirect ELISA on cynomolgus TROP2; unit taken from the x axis (nM).

In test [2] the target is T2, human TROP2-his protein (human, UniProt P09758 27-274).
T2 construct: also called biotin labeled human TROP2-his protein
T2 sequence: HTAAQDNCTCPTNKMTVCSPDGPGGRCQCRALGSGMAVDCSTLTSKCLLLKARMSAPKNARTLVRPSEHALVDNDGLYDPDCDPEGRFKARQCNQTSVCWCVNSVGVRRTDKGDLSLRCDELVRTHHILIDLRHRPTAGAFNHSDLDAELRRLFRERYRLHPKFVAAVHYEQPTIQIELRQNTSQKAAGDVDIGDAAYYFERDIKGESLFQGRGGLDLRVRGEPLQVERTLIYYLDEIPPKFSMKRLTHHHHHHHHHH
Nature of the test: SPR Biacore; antibody captured on anti-human IgG chip, TROP2-his as analyte. A general note: Surface plasmon resonance follows binding to a sensor surface in real time, without labels.

The target of test [3] is T1, cynomolgus TROP2-his protein. The test is described as above.
In test [4] the target is T3, full length human TROP2 on 293F-TROP2 cells (clone ID #3A8) (human, UniProt P09758 27-323).
T3 sequence: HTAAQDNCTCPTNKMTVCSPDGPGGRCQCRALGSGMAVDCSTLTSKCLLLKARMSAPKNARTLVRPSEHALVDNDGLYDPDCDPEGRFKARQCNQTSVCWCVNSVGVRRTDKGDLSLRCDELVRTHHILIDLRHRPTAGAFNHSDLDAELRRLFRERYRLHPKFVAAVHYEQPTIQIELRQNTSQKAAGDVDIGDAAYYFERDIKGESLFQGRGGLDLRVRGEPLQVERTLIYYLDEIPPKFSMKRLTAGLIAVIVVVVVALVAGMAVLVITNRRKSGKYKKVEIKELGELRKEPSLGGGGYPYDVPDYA
Nature of the test: cell based binding FACS (MFI) on 293F-TROP2 cells expressing human TROP2; unit taken from the x axis (nM). As for the experimental part: Cells were washed twice with FACS buffer, and added with 100 μL/well R-Phycoerythrin AffiniPure Goat Anti-Human IgG, Fey fragment specific (1:1000 dilution in FACS buffer, Jackson Immunoresearch, Cat #109-115-098). Following an incubation of 40 minutes at 4° C. in dark, cells were washed twice and re-suspended in FACS buffer. Fluorescence was measured using a Becton Dickinson FACS Canto II-HTS equipment, and the MFI (mean fluorescence intensity) was plotted against antibody concentration. Data was analyzed using Graphpad Prism software and EC₅₀ values were reported.

Test [5] concerns the target T2, human TROP2-his protein. Nature of the test: capture ELISA: antibody captured on anti-human IgG Fc coated plate, biotin labeled human TROP2-his detected with streptavidin-HRP; unit taken from the x axis (nM). How it is done: For the capture ELISA, 96-well plates were coated with 100 μl 2 μg/ml AffiniPure F(ab′)₂ Fragment GoatAnti-Human IgG, Fey fragment specific (Jackson Immuno Research, Cat #109-006-008) in PBS overnight at 4° C. Plates were washed once with wash buffer (PBS+0.05% v/v Tween-20, PBST) and then blocked with 200 μl/well blocking buffer (5% w/v non-fatty milk in PBST) for 2 hours at 37° C. Plates were washed 4 times and respectively incubated with 100 μl serially diluted anti-TROP2 antibodies of the disclosure, the benchmark or negative control hIgG (human immunoglobulin (pH4) for intravenous injection, Hualan Biological Engineering Inc.) (5-fold dilution in 2.5% w/v non-fatty milk in PBST, starting at 66.7 nM) for 40 minutes at 37° C., and then washed 4 times again. […] The reaction was stopped in 3-10 minutes at room temperature with 50 μl/well 1M H₂SO₄, and the absorbance of each well was read on a microplate reader using dual wavelength mode with 450 nm for TMB and 630 nm as the reference wavelength. […] Data was analyzed using Graphpad Prism software and EC₅₀ values were reported.
(In an ELISA, binding on a coated surface is turned into a signal by an enzyme label.)

B1: sacituzumab (benchmark, an analog of sacituzumab, in house made) (antibody, human IgG1, kappa, V domains shown)
VH: SVQLQQSGSELKKPGASVKVSCKASGYTFTNYGMNWVKQAPGQGLKWMGWINTYTGEPTYTDDFKGRFAFSLDTSVSTAYLQISSLKADDTAVYFCARGGFGSSYWYFDVWGQGSLVTVSS
VL: DIQLTQSPSSLSASVGDRVSITCKASQDVSIAVAWYQQKPGKAPKLLIYSASYRYTGVPDRFSGSGSGTDFTLTISSLQPEDFAVYYCQQHYITPLTFGAGTKVEIKR
notes: also called BM; BM1
A word on the EC50: it is the concentration needed to bring the measured effect to its halfway point. As usually defined, the Kd is the equilibrium constant for the complex coming apart. A low value points to higher affinity. By koff is commonly meant a measure of how fast the partners let go of each other. A higher koff goes with a short-lived complex. The kon is a measure of how fast the partners come together. B1: the EC50 amounted to 0.161 nM in test [1], 0.706 nM in test [4] and 0.269 nM in test [5]. Further, the Kd in test [2] stood at 0.554 nM; in test [3], 0.436 nM. Besides, the figures for the koff in test [2] and in test [3] were 0.000286 s⁻¹ and 0.000228 s⁻¹, respectively. Besides, the values for the kon in test [2] and in test [3] were 516000 M⁻¹ s⁻¹ and 522000 M⁻¹ s⁻¹, respectively.

B2: single domain antibody 01-9F (VHH)
VHH: QVQLVESGGGSVQAGGSLRLSCVVSGLPYERYCVAWFRQGPGKEREGVARILSDGTTSYSDSVKGRFTISKDNAKNTLYLQMNSLKSEDTATYYCAAEAFRPFTPSDGDCTTVLGIDYWGKGTPVTVSS
B2: the EC50 worked out at 0.107 nM in test [1], 0.53 nM in test [4] and 0.164 nM in test [5]. The dissociation constant (Kd) came to 0.291 nM in test [2] and 0.285 nM in test [3]. For the same molecule, the koff was 0.00017 s⁻¹ in test [2] and 0.00015 s⁻¹ in test [3]. Further, the kon came out at 586000 M⁻¹ s⁻¹ in test [2] and 525000 M⁻¹ s⁻¹ in test [3].
